# Measured values taken from the RNAGym collection of RNA variant scans (doi:10.1073/pnas.2313332121).
# Fewer inactive variants are shown than the library holds.
# B1: TPR 5TU (parent)
# chain: GGAUCUUCUCGAUCUAACAAAAAAGACAAAUCUGCCACAAAGCUUGAGAGCAUCUUCGGAUGCAGAGGCGGCAGCCUUCGGUGGCGCGAUAGCGCCAACGUUCUCAACUAUGACACGCAAAACGCGUGCUCCGUUGAAUGGAGUUUAUCAUG
# Variants of: B1
# Test: polymerase ribozyme fitness, log enrichment relative to wild type (log ratio); higher = more active; in vitro selection for triplet polymerase activity
# Procedure, shortened: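 Genotype fitness is the logarithm of its enrichment divided by wild-type enrichment, using inverse-variance-weighted averages of replicates. That logarithm is base 2. Enrichment was measured by Illumina sequencing of input and output libraries from one triplicate in vitro selection round, with frozen incubation at −7 °C, on PCR-built, transcribed mutant libraries of each subunit of a heterodimeric triplet polymerase ribozyme, retaining genotypes with ≥10 input reads and ≥1 read per output.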
row,Variant,polymerase ribozyme fitness (log ratio)
1,C35G U53G A64C C79G U109A A115U G128C A142G,≤ -4.2
2,A37G C51G A52G U53A A89C G136C A138U,≤ -4.2
3,C35U C57G G86U G133A,-3.89
4,A37U C54A C96G,-3.53
5,C35U C87G,-3.84
6,A37C G58A C87A U101G G124C A150U,≤ -4.2
7,A37C C51U G58C C95G C118A,-3.66
8,C35G G58C C75G C76U A89U C95G C108A A137C,≤ -4.2
9,C36A G67C G68C A73U C87A U148C,≤ -4.2
10,C38A C69A G133C A150C,≤ -4.2
11,C36U A142C,-2.05
12,C36U U53A A119G,-1.17
13,C38A A60U G84A U134C,-1.6
14,C35G G58C G92U C125G A150U,≤ -4.2
15,C36A G92A,-3.98
16,A37U C72A C95U,≤ -4.2
17,A37C G70U C96G,≤ -4.2
18,A37G C38G G83U C118A C123U,-4.05
19,C38G A49U U55A C87A G126A G143C,≤ -4.2
20,C36U G92C,-1.37
21,C35A A60C A97G U145G,≤ -4.2
22,C35U C96U U101C C118U,-0.95
23,C35G C63A C93U,-4.16
24,C38A U109A C114U C116G,≤ -4.2

row,Variant,polymerase ribozyme fitness (log ratio)
1,A37G C87U,-2.16
2,C35G C96U,-4.18
3,C35U G74U G83C A107C G126A U148C,≤ -4.2
4,C35U A40U U55A C99A U101G G152A,≤ -4.2
5,A37U U146G,-2.19
6,C36U A66C C69A U78G,≤ -4.2
7,A37G C57G A97G,-2.57
8,C36A C63U,-4.08
9,A37G C131U U134C,-1.56
10,C35U C57G C85A G124A A138C U139A A142C U144G,≤ -4.2
11,C38G A66G U77G G83U A107U G128C A137U,≤ -4.2
12,C36A C85U A98G C125A,≤ -4.2
13,C35A,-2.69
14,C35G,-3.25
15,C35U,-0.0953
16,A37U G94A U104G,-2.92
17,C35A A60G C87U C96A G136A U146A,-4.03
18,C36U C87U G143C,-3.81
19,C35U G88C C103U,≤ -4.2
20,C38A U56A A137G,-2.08
21,A37C A40C G58U G94A A97U G143C,≤ -4.2
22,A37U A60U C75U C96A U111A,≤ -4.2
23,C35A G42A A91U,-3.84
24,C35U G92A C96G A98C,-3.23

row,Variant,polymerase ribozyme fitness (log ratio)
1,A37C A39C C95U G133U,≤ -4.2
2,C36A G42C U55A A66C C69U C105G A122U G126A A142C,≤ -4.2
3,A37G C123U,-1.8
4,C35U C75U G83A G84A C95U C96U,-1.5
5,A37U U55A A91G A98U U148A,≤ -4.2
6,C36U A49U U82A A107C G133C,≤ -4.2
7,C38G A41U C79U G92C C123A,≤ -4.2
8,A37C G50U A52C U90C G94C C116U,≤ -4.2
9,C36A G117U U148C,≤ -4.2
10,C36G C105U,-3.04
11,A37C C54U C96U,-0.249
12,C36A U82G U135C U145G G152U,-3.98
13,C35U A49C G59A C96A U148G A150C,≤ -4.2
14,C38A G58A A60G C93U C95A C125G,-3.67
15,A37U A60G A91G G143C,≤ -4.2
16,C35U U77A C149A,≤ -4.2
17,C35U C72U,-0.649
18,C35A A60U U77A U82A G83C A97U G126A,-3.93
19,C35A C57U C85U C118U G128A G152U,-3.96
20,A37G G48C A52C U56A C79A U104A U109A C116G C149G G152A,≤ -4.2
21,A37G C72U A97G U102G C118U,≤ -4.2
22,C36A C95U C125G U127C,≤ -4.2
23,A37C A41U C93U C118A,-2.93
24,C36A C96A,≤ -4.2

row,Variant,polymerase ribozyme fitness (log ratio)
1,A37C A41U A52C C118A,-3.42
2,C35U C85G C132U,-3.12
3,A37G U61G C93U A115C,-4.18
4,C36U G143A,-2.3
5,A37G C54U,-2.05
6,C36U A37U U56A A91C C116G,≤ -4.2
7,C35G G74A U90A C95U,≤ -4.2
8,A37G A60G C87U,-1.88
9,G34U G68U C95G G133A,≤ -4.2
10,C35A A41C C57U C85G,≤ -4.2
11,A37U A52C C116G,-2.94
12,C35A A47U C57U U101A C114G C123U,≤ -4.2
13,C36G A49C G58A G70C U82G A98U U104A A106G,≤ -4.2
14,G34U U56G G58A C69G G94C A97G U134C,≤ -4.2
15,A37U U44A G86C,≤ -4.2
16,C35G C36G G128U,≤ -4.2
17,C36G C95A,-3.65
18,C36U C93U C96G C114G C116A A138C U139G U148C G152A,-4.1
19,C36U G42C U53A G59A U78A C87U,≤ -4.2
20,C35U A97G U134G U144G,-2.34
21,A37U G50C U78C A98U U134C,≤ -4.2
22,A37G U56A A97G,-2.85
23,A37G C93G A97C C116A,≤ -4.2
24,C35U G58A C95U,-0.16

row,Variant,polymerase ribozyme fitness (log ratio)
1,C35U G133U,-3.79
2,A37U A64C U135C,≤ -4.2
3,C38A A66G G70A,≤ -4.2
4,C35U G86A C105A A137U,≤ -4.2
5,C35U A39G G84C A106G A120U G152A,≤ -4.2
6,A37G C93U C116G,-2.65
7,A37C A40G A52U A60G G70C G86U A119C,≤ -4.2
8,C35U G117A U144G A147C,-0.649
9,C38G C51U,-0.547
10,C35U C125A U134C,-0.129
11,C36U A107G U151A,≤ -4.2
12,C38A G58A C96G C129G G143A,-2.67
13,C38A U53A C87U,-1.39
14,C36U C103G,-3.78
15,A37C G80A G86A,-2.42
16,C36U C93A G117U,-3.25
17,G34U C99G A106U U127A C132U U139C,≤ -4.2
18,A37C C38U G71A U109G C123G,≤ -4.2
19,C36U A64G G94A A110G,-4.2
20,A37C A97G,0.477
21,C38A C95A U135A,-1.76
22,C35G C79A G83A A121U,≤ -4.2
23,A37C G83A,-0.102
24,G34U G50U A91C,-4.01

row,Variant,polymerase ribozyme fitness (log ratio)
1,C35A U134C,-3.61
2,C35U C54U U55A C116G,0.41
3,C35U C95A C105G,-2.51
4,C35A A91G C105U,-4.17
5,C36A C51U G68A C85G A97U,≤ -4.2
6,C36A G48A C93U A113U C118G U144G A150U,≤ -4.2
7,C35U U53A U55A C57G G70A G84A C93A,≤ -4.2
8,A37C C57G C76G A98G A138C G140U,-3.42
9,C36G U56A A98G,-3.71
10,C35U A52G C76A A89C U145A,-3.45
11,A37C C76A,-3.34
12,C38A U82A G84U A120C,-1.37
13,A37G A41C U53C C85U U104C G128C C149G,≤ -4.2
14,C35U G59C,0.0057
15,A37C A49C G124A U130G,≤ -4.2
16,C36U G46A A64G G80C,≤ -4.2
17,A37U G42C,-3.9
18,C38A C76U,-0.21
19,C36A G70U G80U C105U,-0.569
20,C36U C96U A142C,-2.88
21,G34U A106G,-0.622
22,C36A U44A G62C C93U U135G U139C U144A,≤ -4.2
23,C38A G83U C96G U144A,-0.619
24,C35G C75U A91U U148C A150G,≤ -4.2

row,Variant,polymerase ribozyme fitness (log ratio)
1,A37G G67A C79G,≤ -4.2
2,A37G C85U G88C C95U,≤ -4.2
3,A37G A60U G81A A97C A137G,-4.19
4,A37U A89U U146A,-1.62
5,C36U A91U,≤ -4.2
6,C36U G62A A91C C96G A113U,≤ -4.2
7,C35G G58A G59U A60U A73C C116G C123A G140C,≤ -4.2
8,C38A G94A,-0.134
9,A37C A40G C57U A73C C93U,≤ -4.2
10,C35U A49G U53A C87U A89C C95U C132A A142C,≤ -4.2
11,C35U C76A C95U U148A,≤ -4.2
12,C35U C51U A52C C76G C93G A115U,≤ -4.2
13,C35U A41C C105A,-4.09
14,C35U G92C U135C,-2.73
15,A37U A39G A49U G81C A91C G94A U146A,≤ -4.2
16,C35U C63A,-0.573
17,A37C C38U U53A A91G,-3.98
18,C35U C51G G71U C131U,≤ -4.2
19,C35G G88A C95U U101A G141C,-4.12
20,C38A C76A A97G U134G,-3.3
21,C35U A52U C95G A106U A107G C118G,≤ -4.2
22,C35U A37C U55A C95U,-1.32
23,C36A C87U,-3.89
